B1: Regulator of G-protein signaling 12 (Mus musculus), Q8CGE9 (parent)
chain: MYRAGEPGKRQPGPAPPRVRSVEVARGRAGYGFTLSGQAPCVLSCVMRGSPADFVGLRAGDQILAINEINVKKASHEDVVKLIGKCSGVLHMVIAEGTSHVESCSSDEEGGLYEGKGWLRPKLDSKALGINRAERVVEEVQSGGIFNMIFESSSLCASGPEPLKLKQRSLSESAALRLDAGQAGLCAPHPSMLSKEDISKVINDDSVFTVGLDSHDDFGLDASILNVAMVVGYLGSIELPSTSSNLEHDSLQAIRGCMRRLRAEQKIHSLVTMKVMHDCVQLVTDRAGVVAEYPAEKLAFSAVCPDDRRFFGLVTMQTNDDGGLAQEDEGALRTSCHVFMVDPDLFHHKIHQGIARRFGFACTADPDTSGCLEFPASSLPVLQFISVLYRDMGELIEGVRARAFLDGDADAHQNNSTSSNSDSGIGNFNQEEKSNRVLVVDLGGGSSRHGQGSSPGWESGGGRGSQPWSAPWNGAFCHDSEAGSPLETSPNTDRFWDLTKHSGPVSHMEVPPATLRSSIPPSKRGAAGSSCGFNQRWLPVHVLQEWQCGHASDQESYTDSTDGWSSVNCGTLPPPMSKIPADRYRVEGSFAQAPLSTQKRDWSRKAFGMQNLFGPHRNVRKTKEDKKSSKLGRGVALAQTSQRTSARRSFGRSRRFSITRSLDDLESATVSDGELTGADLKDCISNNSLSSNASLPSVQSCRRLRERRVASWAVSFERLLQDPVGVRYFSDFLRKEFSEENILFWQACECFSHVPAHDKKELSYRAREIFSKFLCSKATTPVNIDSQAQLADDILNAPHPDMFKEQQLQIFNLMKFDSYTRFLKSQLYQECVLAEVEGRTLPDSQQVPSSPASKHSISSDHSNVSTPKKLSGKSKSGRSLNEDVGEEDSEKKRRGAFFSWSRSRSTGRSQKKKDHGDHAHDAPHANGGLCRRESQGSVSSAGSLDLSEACRTSALEKDKAAKHCCVHLPDGTSCVVAVKSGFSIKEILSGLCERHGINGAAVDLFLVGGDKPLVLHQDSSILATRDLRLEKRTLFRLDLVPINRSVGLKAKPTKPVTEVLRPVVAKYGLDLGSLLVRLSGEKEPLDLGAPISSLDGQRVILEERDPSRGKVSTDKQKGAPVKQNSAVNSSPRNHLAMGEERTLGKSNSIKIRGENGKSARDPRLSKREESIAKIGKKKYQKINLDEAEEFFELISKAQSNRADDQRGLLRKEDLVLPEFLRLPAGSSELALSSPPPVKGYSKRAVTGHGQEGAAQTEESYSDSPATSPASAQSPCSAYSPGSAHSPGSAHSTPGPPGTTQPGEKPTKPSCVSMVQEGTTQAWRRLSPEMEAGGIQTVEDEQVADLTLMGEGDISSPNSTLLPPPPTPQDTPGPPRPGTSRF

Variants of: B1
Conditions: with rash_rat Hras

Variant | effect of a mutation on the interaction
H995L | decreasing interaction

Variants of: B1
Conditions: with rasn_rat Nras

Variant | effect of a mutation on the interaction
H995L | decreasing interaction

From IntAct's records for PubMed 17380122
